We go through four molecules from US20180291353A1, “MONOFUNCTIONAL ALDEHYDE AND ALCOHOL DEHYDROGENASES FOR PRODUCTION OF FUELS AND COMMODITY CHEMICALS” (The Regents of the University of California, priority 2015, published 2018).

Data set [1] relates to butanediol and hydroxybutanone production pathway. In words: Screen of secondary alcohol dehydrogenases in the aldh7-adh2 pathway in E. coli (FIG. 15-17). Conditions: in words; pathway with aldh7-adh2 and acetoacetyl-CoA reductase. It is filed as cell-based. The text has this: FIG. 16 illustrates the results of a screen of secondary alcohol dehydrogenases when expressed in the pathway described in FIG. 15. The production titers of 4-hydroxy-2-butanone (hydroxybutanone) and 1,3-butanediol (butanediol) when the illustrated secondary alcohol dehydrogenases are expressed in the pathway illustrated in FIG. 15 are shown. Data are mean±s.d. (n=3).
FIG. 17 illustrates how expression of specific proteins in the pathway described in FIG. 15 can control butanediol:hydroxybutanone ratios through pathway design. The production titers of 4-hydroxy-2-butanone (hydroxybutanone) and 1,3-butanediol (butanediol) when the illustrated proteins are expressed in the pathway illustrated in FIG. 15 are shown. Data are mean±s.d. (n=3).
Unless otherwise described, applicable materials and methods as described in this Example are analogous to those described in Example 1.
At least four SADHs enabled butanediol production of 2 g/L with hydroxybutanone production limited to 250 mg/L or less (FIG. 16). This pathway design appears preferable to enforcing specificity through an ADH that will not accept acetoacetaldehyde; acetoacetaldehyde need not be a dead end product and can still be channeled to butanediol production.

Data set [2] is described as follows: ALDH7 activity toward substrates. In kind it is biochemical. Conditions: in words.
Substrate in data set [3]: CC(=O)SCCNC(=O)CCNC(=O)[C@H](O)C(C)(C)COP(=O)(O)OP(=O)(O)OC[C@H]1O[C@@H](n2cnc3c(N)ncnc32)[C@H](O)[C@@H]1OP(=O)(O)O
The data set can be described thus: purified protein, by the assay type. The conditions noted are these: other: 100 μM NADH, 100 mM Tris, 1 mM DTT, pH 7.5, 30° C., mean±s.e. (n=3).

Substrate in data set [4]: CCCC(=O)SCCNC(=O)CCNC(=O)[C@H](O)C(C)(C)COP(=O)(O)OP(=O)(O)OC[C@H]1O[C@@H](n2cnc3c(N)ncnc32)[C@H](O)[C@@H]1OP(=O)(O)O
The data set can be described thus: purified protein, by the assay type. The conditions noted are these: other: 100 μM NADH, 100 mM Tris, 1 mM DTT, pH 7.5, 30° C., mean±s.e. (n=3).

Data set [5] relates to n-butanol biosynthetic pathway. The data set can be described thus: Butanol and ethanol fuel titer in E. coli DH1 expressing the n-butanol pathway with AdhE2 variants or homologs (FIG. 2, FIG. 3). In kind it is cell-based. Conditions: E. coli DH1, compared with WT AdhE2. The text has this: The fuel titer of butanol in E. coli cells expressing the biosynthetic pathway shown in FIG. 6A with various particular AdhE2 variants incorporating amino acid substitutions from the AdhE2 superfamily is shown. The x-axis labels indicate the particular AdhE2 variant being expressed in the E. coli, with wild-type AdhE2 also shown for comparison. In each figure, E. coli DH1 was transformed with pT5T33-phaA.HBD-crt and pCDF3-ter-AdhE2 variant as indicated. FIG. 2A illustrates the butanol production for AdhE2 variants #76930 to #76978. FIG. 2B illustrates the butanol production for AdhE2 variants #76979 to #77025, and also includes WT AdhE2 (GI 499193180). AdhE2 and variants thereof shown in FIG. 2A and FIG. 2B include SEQ ID NOs: 60-154. […]
. […] Samples were quantified after 3 d of cell culture.
Samples (2 ml) were removed from cell culture and cleared of biomass by centrifugation at 20,817 g for 2 min using an Eppendorf 5417R centrifuge. […] These samples were then analyzed on a Trace GC Ultra (Thermo Scientific) using an HP-5MS column (0.25 mm×30 m, 0.25 μM film thickness, J & W Scientific). The oven program was as follows: 75° C. for 3 min, ramp to 300° C. at 45° C. min^−1, 300° C. for 1 min. n-Butanol was quantified by flame ionization detection (FID) (flow: 350 ml min^−1 air, 35 ml min^−1 H2 and 30 ml min^−1 helium). […]

Data set [6] relates to butanol production pathway. The data set can be described thus: Butanol and ethanol production in E. coli MC1.24 (quintuple KO) with bifunctional or monofunctional dehydrogenases (FIG. 5). The conditions noted are these: E. coli MC1.24, FIG. 5. In kind it is cell-based. The text has this: FIG. 5 illustrates genetically engineered improvement of a butanol production pathway composed of monofunctional aldehyde and alcohol dehydrogenases. The fuel titer of either butanol or ethanol in E. coli cells expressing the biosynthetic pathway shown in FIG. 6A with various particular alcohol and/or aldehyde dehydrogenases is shown. Specifically, E. coli MC1.24 (quintuple KO) was transformed with pT533-phaA.HBD, pBBR2-aceE.F.lpd and 1: pCWO.trc-ter-adhE2, 2: pCDF3-aldh16, 3: pCWori-ter-aldh16.CaADH, or 4: pCWO.trc-ter-aldh16.CaADH as indicated.
. The cultures were grown at 37° C. in a rotary shaker (200 r.p.m.) and induced with IPTG (1.0 mM) at OD600=0.35-0.45. At this time, the growth temperature was reduced to 30° C., and the culture flasks were sealed with Parafilm M (Pechiney Plastic Packaging) to prevent product evaporation for aerobic cultures. Anaerobic cultures were sealed and the headspace was sparged with argon for 5 minutes immediately follow induction. Aerobic cultures were unsealed for 10 to 30 min every 24 h then resealed with Parafilm M, and additional glucose (1% (w/v)) was added 1 day post-induction. Samples were quantified after 3 d of cell culture.
Samples (2 ml) were removed from cell culture and cleared of biomass by centrifugation at 20,817 g for 2 min using an Eppendorf 5417R centrifuge. The supernatant or cleared medium sample was then mixed in a 9:1 ratio with an aqueous solution containing the isobutanol internal standard (10,000 mg l^−1). These samples were then analyzed on a Trace GC Ultra (Thermo Scientific) using an HP-5MS column (0.25 mm×30 m, 0.25 μM film thickness, J & W Scientific). The oven program was as follows: 75° C. for 3 min, ramp to 300° C. at 45° C. min^−1, 300° C. for 1 min. n-Butanol was quantified by flame ionization detection (FID) (flow: 350 ml min^−1 air, 35 ml min^−1 H2 and 30 ml min^−1 helium). Samples containing n-butanol levels below 500 mg 1^−1 were requantified after extraction of the cleared medium sample or standard (500 μl) with toluene (500 μl) containing the isobutanol internal standard (100 mg 1^−1) using a Digital Vortex Mixer (Fisher) for 5 min set at 2,000. The organic layer was then quantified using the same GC parameters with a DSQII single-quadrupole mass spectrometer (Thermo Scientific) using single-ion monitoring (m/z 41 and 56) concurrent with full scan mode (m/z 35-80). Samples were quantified relative to a standard curve of 2, 4, 8, 16, 31, 63, 125, 250, 500 mg 1^−1 n-butanol for MS detection or 125, 250, 500, 1,000, 2,000, 4,000, 8,000 mg 1^−1 n-butanol for FID detection. Standard curves were prepared freshly during each run and normalized for injection volume using the internal isobutanol standard (100 or 1,000 mg 1^−1 for MS and FID, respectively). […]

B1: SADH1: secondary alcohol dehydrogenase from Pichia kudriavzevii (protein, listed as Pichia kudriavzevii)
chain: MFMKGLTYLKPGIVSWQSIPKPVLKKPTDVIGKVVTTTICGSDLHILKGDVPETTALAATTGHGVVLGHEAIIEIESVGDAVKNFSKGDVCIVSCITSCGKCYYCKRNLQSHCTGHMEGTSGWVFGHEIDGTQAEYVRVPCADYGLYKVPEGVAYEKLLMLSDAIPTSYEIGILNGEVKEGDSVAVVGLGPVGLSALLTAINKKPKQLIAIDMDENRLDLAKQLGATHIINSTNMPNEEVAKKVQEISKDLEPGRESGVDVAIECVGVPPTFELCEDLIASGGTIANVGVHGAKVDLKLQELWIKNCKITTGLVSTYSIPDLLNQVADGSLDPSPIITHHFKFDEFEKAYQVFKDAKNTKAMKIILTP
With B1, the butanediol titer result in data set [1] was “maximum butanediol titer”.

B2: ALDH7: monofunctional aldehyde dehydrogenase (protein, listed as Clostridium botulinum)
chain: MERNLSVLSQTNDLKITKRTEGDKSNNKESYLGVFKKVENAITKAIYAQKKLSLYYTKEDRERIIKSIRKATLENKEILAKMIVDETHMGRYEDKILKHELVAKYTPGTEDLITTAWSGDQGLTLVEMSPYGVIGAITPSTNPTETVICNSIGMIAAGDSVVFNGHPGAKKCVAFAVDMINKAVIREGGPENLVTTVENPTMESLNVIMKHPYIKLLCGTGGPGLIKTLLNSGKKAIGAGAGNPPVIVDDSADIDKAAKNIIEGCSFDNNLPCIAEKEVFVFENVANDLIQNMIKNNAVLINENQVSKLLDLVLLERKDETLEYAINKKWVGKDAKLFLDKIGIKASDNVRCIICEVDANHPFVMTELMMPILPIVRVKDVDEAIECAKTAEQRKRHSAYMYSKNIDNLNRFEKEIDTTIFVKNAKSFAGVGFGAEGFTTFTIAGPTGEGITSARNFTRQRRCVLAG
Take B2: in data set [2], the “activity toward substrates including acetoacetyl-CoA and 3-hydroxybutyryl-CoA” value was “displays activity”.

B3: AdhE2-ALDH (aldehyde dehydrogenase domain of bifunctional AdhE2, wild type, GI 499193180, SEQ ID NO: 41) (Clostridium acetobutylicum) (protein)
chain: MKVTNQKELKQKLNELREAQKKFATYTQEQVDKIFKQCAIAAAKERINLAKLAVEETGIGLVEDKIIKNHFAAEYIYNKYKNEKTCGIIDHDDSLGITKVAEPIGIVAAIVPTTNPTSTAIFKSLISLKTRNAIFFSPHPRAKKSTIAAAKLILDAAVKAGAPKNIIGWIDEPSIELSQDLMSEADIILATGGPSMVKAAYSSGKPAIGVGAGNTPAIIDESADIDMAVSSIILSKTYDNGVICASEQSILVMNSIYEKVKEEFVKRGSYILNQNEIAKIKETMFKNGAINADIVGKSAYIIAKMAGIEVPQTTKILIGEVQSVEKSELFSHEKLSPVLAMYKVKDFDEALKKAQRLIELGGSGHTSSLYIDSQNNKDKVKEFGLAMKTSRTFINMPSSQGASGDLYNFAIAPSFTLGCGTWGGNSVSQNVEPKHLLNIKSVAERRENMLWFKVPQKIYFKYGCLRFALKELKDMNKKRAFIVTDKDLFKLGYVNKITKVLDEIDIKYSIFTDIKSDPTIDSVKKGAKEMLNFEPDTIISIGGGSPMDAAKVMHLLYEYPEAEIENLAINFMDIRKRICNFPKLGTKAISVAIPTTAGTGSEATPFAVITNDETGMKYPLTSYELTPNMAIIDTELMLNMPRKLTAATGIDALVHAIEAYVSVMATDYTDELALRAIKMIFKYLPRAYKNGTNDIEAREKMAHASNIAGMAFANAFLGVCHSMAHKLGAMHHVPHGIACAVLIEEVIKYNATDCPTKQTAFPQYKSPNAKRKYAEIAEYLNLKGTSDTEKVTALIEAISKLKIDLSIPQNISAAGINKKDFYNTLDKMSELAFDDQCTTANPRYPLISELKDIYIKSF
Turning to B3, in data set [3], the Km was found to be 100 ± 10 µM, the kcat was 1.3 s⁻¹ and the kcat/Km was determined as 13000 M⁻¹ s⁻¹. The Km in data set [4] was determined as 10 ± 1 µM.

B4: ALDH16: monofunctional aldehyde dehydrogenase specific for C4 substrates (protein, listed as Clostridium beijerinckii)
chain: MNKDTLIPTTKDLKVKTNGENINLKNYKDNSSCFGVFENVENAISSAVHAQKILSLHYTKEQREKIITEIRKAALQNKEVLATMILEETHMGRYEDKILKHELVAKYTPGTEDLTTTAWSGDNGLTVVEMSPYGVIGAITPSTNPTETVICNSIGMIAAGNAVVFNGHPCAKKCVAFAVEMINKAIISCGGPENLVTTIKNPTMESLDAIIKHPSIKLLCGTGGPGMVKTLLNSGKKAIGAGAGNPPVIVDDTADIEKAGRSIIEGCSFDNNLPCIAEKEVFVFENVADDLISNMLKNNAVIINEDQVSKLIDLVLQKNNETQEYFINKKWVGKDAKLFLDEIDVESPSNVKCIICEVNANHPFVMTELMMPILPIVRVKDIDEAIKYAKIAEQNRKHSAYIYSKNIDNLNRFEREIDTTIFVKNAKSFAGVGYEAEGFTTFTIAGSTGEGITSARNFTRQRRCVLAG
Consider B4, for which the “butanol:ethanol ratio” value in data set [5] is recorded as “favorable”. In data set [6], this molecule displayed a butanol production of 1 g/L and an ethanol production of 0.5 g/L.

A word on the Km: it is the concentration of substrate that gives half-maximal velocity. The term kcat denotes the maximal rate divided by the concentration of active sites. One may read the kcat/Km as the second-order rate constant that governs catalysis at low substrate concentration.
